Measurements: PMC5928155, “Sak4 of Phage HK620 Is a RecA Remote Homolog With Single-Strand Annealing Activity Stimulated by Its Cognate SSB Protein” (Frontiers in Microbiology, 2018)

Key:
[1] = target: SSB_(HK620), wild-type HkaK protein from phage HK620 (phage HK620) (UniProt Q9AZ30)
[2] = target: T1, Sak4 (HkaL) of phage HK620 (Enterobacteria phage HK620, UniProt Q9AZ29); assay: gel shift of Cy5-labelled 81-mer ssDNA and single-strand annealing assay, with or without ATP; settings: 1 mM ATP, 5 mM MgCl2, about 150-169 mM NaCl, pH 7.5, 30 °C; ATP needed for ssDNA binding and annealing; functional evidence, nucleotide binding not measured directly
T1 construct: untagged full-length Sak4 from plasmid pSMG288, expressed in E. coli ER2566; monomer in solution
T1 sequence (Q9AZ29 1-226): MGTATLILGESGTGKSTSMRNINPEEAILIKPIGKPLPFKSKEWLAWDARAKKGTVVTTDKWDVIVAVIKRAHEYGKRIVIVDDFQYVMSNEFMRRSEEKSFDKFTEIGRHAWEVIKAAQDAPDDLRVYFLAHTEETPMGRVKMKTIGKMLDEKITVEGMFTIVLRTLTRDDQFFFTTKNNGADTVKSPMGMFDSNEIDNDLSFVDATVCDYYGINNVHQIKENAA

[3] = target: the molecule itself; assay: SEC; Superdex 200 10/300 GL; proteins alone or together in 1 mL of 50 mM Tris-HCl pH 8, 1 mM DTT, 5% glycerol, 150 mM NaCl, 20 min at 30°C before injection; fractions analysed by SDS-PAGE; no ssDNA, no ATP
Sak4 (HkaL) [4] = target: T2, Sak4 (HkaL) (Enterobacteria phage HK620, UniProt Q9AZ29 1-226); assay: EMSA; 1 mM ATP, 5 mM Mg2+; EMSA: 13 mM Tris-HCl pH 7.5, 5 mM MgCl2, 169 mM NaCl, 0.1 mg/mL BSA, 1 mM DTT, +/- 1 mM ATP, 10 nM DNA, 15 min at 30 C; 5% native PAGE in 1X TAE; settings: protein: recombinant; tags: none stated; label: 5'-Cy5; single strand
T2 sequence: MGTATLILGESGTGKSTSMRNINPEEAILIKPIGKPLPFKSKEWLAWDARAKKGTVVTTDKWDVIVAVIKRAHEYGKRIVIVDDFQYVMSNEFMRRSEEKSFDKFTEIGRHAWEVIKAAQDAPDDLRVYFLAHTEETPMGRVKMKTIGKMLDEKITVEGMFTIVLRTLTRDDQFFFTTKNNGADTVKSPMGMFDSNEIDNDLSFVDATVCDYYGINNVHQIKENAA

SSB Ecoli = SSB Ecoli (Escherichia coli, UniProt P0AGE0 2-178); assay: EMSA; 5 mM Mg2+, 1 mM ATP; EMSA: 13 mM Tris-HCl pH 7.5, 5 mM MgCl2, 169 mM NaCl, 0.1 mg/mL BSA, 1 mM DTT, +/- 1 mM ATP, 10 nM DNA, 15 min at 30 C; 5% native PAGE in 1X TAE; settings: protein: commercial; chain copies: 4; label: 5'-Cy5; single strand
Chain of SSB Ecoli (P0AGE0 2-178): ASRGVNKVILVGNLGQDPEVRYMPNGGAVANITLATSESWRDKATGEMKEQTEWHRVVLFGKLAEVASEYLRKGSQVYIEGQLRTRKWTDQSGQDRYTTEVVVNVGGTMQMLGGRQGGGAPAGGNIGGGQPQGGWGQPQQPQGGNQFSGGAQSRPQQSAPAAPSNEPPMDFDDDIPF

SSB HK620 (HkaK) = target: T3, SSB HK620 (HkaK) (Enterobacteria phage HK620, UniProt Q9AZ30 1-195); assay: as above; settings: protein: recombinant; tags: untagged; chain copies: 4; label: 5'-Cy5; single strand
T3 sequence: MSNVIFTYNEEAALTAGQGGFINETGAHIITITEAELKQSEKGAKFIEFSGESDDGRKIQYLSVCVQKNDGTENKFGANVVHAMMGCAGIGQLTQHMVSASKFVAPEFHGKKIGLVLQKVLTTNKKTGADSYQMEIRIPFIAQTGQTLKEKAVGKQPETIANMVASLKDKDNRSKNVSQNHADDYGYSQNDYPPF

[5] = target: T4, Sak4 (HkaL);SSB HK620 (HkaK) (Enterobacteria phage …, UniProt Q9AZ29;Q9AZ30 1-226;1-195, |); assay: EMSA; Sak4 titrated on GO47 precoated with 5.1 uM SSB HK620; 1 mM ATP; value is Sak4 concentration; EMSA: 13 mM Tris-HCl pH 7.5, 5 mM MgCl2, 169 mM NaCl, 0.1 mg/mL BSA, 1 mM DTT, +/- 1 mM ATP, 10 nM DNA, 15 min at 30 C; 5% native PAGE in 1X TAE; settings: protein: recombinant;recombinant; tags: none stated;untagged; copies: 1;4; label: 5'-Cy5; single strand
T4 sequence 1: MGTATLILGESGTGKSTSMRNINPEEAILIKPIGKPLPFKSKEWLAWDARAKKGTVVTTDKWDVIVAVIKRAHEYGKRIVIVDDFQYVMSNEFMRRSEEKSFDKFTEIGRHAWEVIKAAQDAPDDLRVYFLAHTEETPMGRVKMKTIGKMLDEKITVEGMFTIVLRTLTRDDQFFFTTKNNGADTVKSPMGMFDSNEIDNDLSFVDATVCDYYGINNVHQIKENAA
T4 sequence 2: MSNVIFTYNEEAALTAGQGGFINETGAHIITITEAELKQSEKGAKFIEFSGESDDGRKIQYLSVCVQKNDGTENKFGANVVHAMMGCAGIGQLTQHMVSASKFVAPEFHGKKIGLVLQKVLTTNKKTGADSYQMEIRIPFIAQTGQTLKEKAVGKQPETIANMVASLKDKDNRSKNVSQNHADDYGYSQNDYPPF

Sak4 (HkaL) [6] = target: T2, Sak4 (HkaL); assay: EMSA; 3.7 uM Sak4, 1 mM ATP; EMSA: 13 mM Tris-HCl pH 7.5, 5 mM MgCl2, 169 mM NaCl, 0.1 mg/mL BSA, 1 mM DTT, +/- 1 mM ATP, 10 nM DNA, 15 min at 30 C; 5% native PAGE in 1X TAE; settings: protein: recombinant; tags: none stated; label: 5'-Cy5 on GO47; blunt

Sak4 protein of phage HK620 (natural protein)
single-strand annealing of GO47 and GO34 (10 nM each) by 0.5 µM Sak4 with SSB (HK620) at concentrations above 640 nM, 1 mM ATP (spontaneous annealing 11.8%) [1]: > 65%

Nc1ncnc2c1ncn2[C@@H]1O[C@H](COP(=O)(O)OP(=O)(O)OP(=O)(O)O)[C@@H](O)[C@H]1O [ATP]
gel shift of Cy5-labelled 81-mer ssDNA and single-strand annealing assay, with o [2]: Sak4 shifted the ssDNA only if ATP was added in the reaction buffer

B1: SSB_(HK620), wild-type HkaK protein from phage HK620 (natural protein, UniProt Q9AZ30 1-195, looked up)
chain: MSNVIFTYNEEAALTAGQGGFINETGAHIITITEAELKQSEKGAKFIEFSGESDDGRKIQYLSVCVQKNDGTENKFGANVVHAMMGCAGIGQLTQHMVSASKFVAPEFHGKKIGLVLQKVLTTNKKTGADSYQMEIRIPFIAQTGQTLKEKAVGKQPETIANMVASLKDKDNRSKNVSQNHADDYGYSQNDYPPF
notes: HkaK (first annotated Abc1) of phage HK620, a distant SSB homolog (Pfam DUF669); produced untagged; monomer 21.3 kDa; Untagged; also called Abc1_(HK620); HkaK/Abc1_(HK620); source: E. coli ER2566 with pSMG279, purified (PEI, ammonium sulfate, HiTrap Heparin)
stoichiometry N [3]: 4

B2: GO47 (ssDNA)
DNA: ACCTGAATCGCCAGCGGCATCAGCACCTTGTCGCCTTACGTATACTATTTGCCCATGGTGAAAACGGGGGCGAAGAAGTTG
apparent K (half saturation) (Sak4 (HkaL) [4]): ~1850 nM | apparent K (half saturation) (SSB Ecoli): ~40 nM | apparent K (half saturation) (SSB HK620 (HkaK)): 226 nM | apparent K (half saturation) [5]: < 500 nM

B3: GO47/GO34 duplex (dsDNA)
DNA 1: ACCTGAATCGCCAGCGGCATCAGCACCTTGTCGCCTTACGTATACTATTTGCCCATGGTGAAAACGGGGGCGAAGAAGTTG
DNA 2: CAACTTCTTCGCCCCCGTTTTCACCATGGGCAAATAGTATACGTAAGGCGACAAGGTGCTGATGCCGCTGGCGATTCAGGT
binding result (Sak4 (HkaL) [6]): no binding
